Earlier results, collected in article PMC4660202.

Biological target: IZUMO1 ECD (Mus musculus) (UniProt Q9D9J7)
Sequence of UniProt Q9D9J7 (Q9D9J7 22-319): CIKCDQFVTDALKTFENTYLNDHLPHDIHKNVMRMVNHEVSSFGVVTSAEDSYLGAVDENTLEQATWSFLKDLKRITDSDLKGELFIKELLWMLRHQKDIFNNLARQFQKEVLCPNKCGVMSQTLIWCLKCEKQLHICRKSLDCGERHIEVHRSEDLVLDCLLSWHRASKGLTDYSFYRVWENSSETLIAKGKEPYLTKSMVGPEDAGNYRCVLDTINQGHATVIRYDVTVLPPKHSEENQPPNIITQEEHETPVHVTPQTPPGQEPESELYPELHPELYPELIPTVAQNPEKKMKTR

- Kd: 12.3 µM
Substance: JUNO (from UniProt Q9EQF4)
